The values that follow come from patent publication US20200281977A1 (HUMANITAS MIRASOLE S P A, published 2020).

The target of the assay is T1, IL-18Rα, human (human, UniProt Q13478 19-541).
T1 construct: whole, on cells; Detected on human NK cells with mouse monoclonal anti-IL-18Rα (Clone 70625; R&D Systems); also called IL-1R5/IL-18R
T1 sequence (looked up): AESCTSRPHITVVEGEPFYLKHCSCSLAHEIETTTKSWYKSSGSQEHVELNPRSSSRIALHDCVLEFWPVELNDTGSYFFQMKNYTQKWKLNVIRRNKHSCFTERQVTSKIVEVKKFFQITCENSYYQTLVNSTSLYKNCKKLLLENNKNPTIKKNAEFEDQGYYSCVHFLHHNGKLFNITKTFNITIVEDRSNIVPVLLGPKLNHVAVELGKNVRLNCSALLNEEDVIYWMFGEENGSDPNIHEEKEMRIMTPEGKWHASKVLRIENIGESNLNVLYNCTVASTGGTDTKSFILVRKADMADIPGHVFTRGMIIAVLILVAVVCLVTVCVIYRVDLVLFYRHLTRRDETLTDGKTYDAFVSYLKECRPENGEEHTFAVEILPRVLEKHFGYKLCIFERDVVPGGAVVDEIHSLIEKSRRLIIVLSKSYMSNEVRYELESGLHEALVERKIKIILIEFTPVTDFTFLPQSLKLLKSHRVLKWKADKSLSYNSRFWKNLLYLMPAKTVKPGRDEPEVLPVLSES
The experiment in a line: STED microscopy of human NK cells stimulated with IL-18, co-stained with anti-IL-1R8 and anti-IL-18Rα antibodies. The protocol:
Human NK cells were enriched and left to adhere on poly-D-lysine (Sigma-Aldrich)-coated coverslips, stimulated with IL-18 (50 ng ml⁻¹; 1 min, 5 min, 10 min), fixed with 4% PFA, incubated with 5% normal donkey serum (Sigma-Aldrich), 2% BSA, 0.05% Tween in PBS2+ (pH 7.4) (blocking buffer), and then with biotin-conjugated goat polyclonal anti-human IL-1R8 antibody or biotin-conjugated normal goat IgG (all from R&D Systems) and mouse monoclonal anti-IL-18Rα (Clone 70625; R&D Systems) or mouse IgG1 (Invitrogen), all diluted at 5 μg ml⁻¹ in blocking buffer, followed by Alexa Fluor 488-conjugated donkey anti-goat IgG antibody and Alexa Fluor 555 donkey anti-mouse IgG antibody (both from Molecular Probes). Mowiol was used as mounting medium. STED xyz images were acquired in a unidirectional mode with a Leica SP8 STED3X confocal microscope system. Alexa Fluor 488 was excited with a 488 nm argon laser and emission collected from 505 to 550 nm applying a gating between 0.4 and 7 ns to avoid collection of reflection and autofluorescence. Alexa Fluor 555 was excited with a 555/547 nm-tuned white light laser and emission collected from 580 to 620 nm. Line sequential acquisition was applied to avoid fluorescence overlap. The 660 nm CW-depletion laser (80% of power) was used for both excitations. […]

B1: Interleukin-1 receptor 8 (IL-1R8), human (receptor)
chain: MPGVCDRAPDFLSPSEDQVLRPALGSSVALNCTAWVVSGPHCSLPSVQWLKDGLPLGIGGHYSLHEYSWVKANLSEVLVSSVLGVNVTSTEVYGAFTCSIQNISFSSFTLQRAGPTSHVAAVLASLLVLLALLLAALLYVKCRLNVLLWYQDAYGEVEINDGKLYDAYVSYSDCPEDRKFVNFILKPQLERRRGYKLFLDDRDLLPRAEPSADLLVNLSRCRRLIVVLSDAFLSRAWCSHSFREGLCRLLELTRRPIFITFEGQRRDPAHPALRLLRQHRHLVTLLLWRPGSVTPSSDFWKEVQLALPRKVQYRPVEGDPQTQLQDDKDPMLILRGRVPEGRALDSEVDPDPEGDLGVRGPVFGEPSAPPHTSGVSLGESRSSEVDVSDLGSRNYSARTDFYCLVSKDDM
notes: Endogenous IL-1R8 on human primary NK cells; NP_001128525.1, NP_001128526.1, NP_068577.2); also called SIGIRR; single immunoglobulin IL-1R-related receptor
B1: the binding result is given as “binds”.
